Experiment [1] deals with human ferroportin with V5 tag, on doxycycline-induced T-REx/FPN-V5 cells (human) (UniProt Q9NP59).
Experiment [2] concerns the target T1, ferroportin-hepcidin interaction (T-REx/FPN-V5 cells) (Homo sapiens, UniProt Q9NP59).
T1 sequence (Q9NP59 1-571): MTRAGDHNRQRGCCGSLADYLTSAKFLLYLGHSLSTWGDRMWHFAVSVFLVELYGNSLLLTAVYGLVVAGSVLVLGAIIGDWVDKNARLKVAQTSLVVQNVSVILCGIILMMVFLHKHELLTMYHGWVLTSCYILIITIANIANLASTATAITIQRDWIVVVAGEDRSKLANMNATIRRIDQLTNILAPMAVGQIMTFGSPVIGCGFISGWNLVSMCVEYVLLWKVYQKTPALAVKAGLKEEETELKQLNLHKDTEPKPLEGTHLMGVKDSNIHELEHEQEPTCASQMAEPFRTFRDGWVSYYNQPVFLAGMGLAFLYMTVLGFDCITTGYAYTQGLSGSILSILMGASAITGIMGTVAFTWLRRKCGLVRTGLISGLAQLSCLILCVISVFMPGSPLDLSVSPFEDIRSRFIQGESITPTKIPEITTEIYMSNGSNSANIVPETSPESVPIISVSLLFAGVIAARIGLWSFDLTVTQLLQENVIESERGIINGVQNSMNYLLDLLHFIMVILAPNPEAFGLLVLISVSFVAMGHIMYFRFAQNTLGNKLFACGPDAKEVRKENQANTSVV
T1 sequence (P81172 60-84 partner): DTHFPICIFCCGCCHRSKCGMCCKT
In words: RhoG-hepcidin reversibility (washout) assay. It counts as cell-based. The note with it: for IC50: cells treated 1 h, washed to remove unbound compound, then RhoG-hepcidin, N = 3, read-out: IC50 blocking RhoG-hepcidin binding/uptake after washout. As for the experimental part:
T-REx™/FPN-V5 cells plated in 96-well Packard ViewPlates at 50,000 cells/well and induced overnight as described for the BLA screening assay. […] As a control, cells were treated identically except that compound was not removed before addition of RhoG-hepcidin. Cells were fixed with 4% formaldehyde (Thermo Fisher) and stained with Hoechst nuclear dye. RhoG-Hepc uptake per cell was measured by cellular imaging.
(§1) In an effort to identify small molecule inhibitors of hepcidin-induced FPN internalization, we ran a small molecule screen using the cell-based iron response reporter assay described above. […] Molecules that prevented intracellular iron accumulation were further tested in the RhoG-hepcidin uptake and FPN internalization assays.
(A) T-REx™/FPN-V5 cells were induced overnight and treated with small molecules for 1 h prior to addition of RhoG-hepc for 2 h. Cells were fixed/permeabilized and stained with Ab 38G6; blue = nuclei, green = RhoG-hepcidin, red = FPN. Scale bar = 20 μm.
Reactivity with cell-based, folded FPN was assessed by the hepcidin uptake assay (Figure 9C); reactivity with the linear peptide was assessed by mass spectrometry (Figure 10A).

In experiment [3] the target is human ferroportin with V5 tag, on doxycycline-induced T-REx/FPN-V5 cells (human) (UniProt Q9NP59). The source holds these as a separate data set.
Experiment [4] deals with T1, ferroportin-hepcidin interaction (T-REx/FPN-V5 cells). As to the kind of experiment: RhoG-hepcidin uptake assay. As to conditions: compound 1 h prior to 250 nM RhoG-hepcidin for 1 h; read-out: IC50 inhibition of RhoG-hepcidin uptake. It counts as cell-based.
Text: as §1

For experiment [5], the target named is endogenous human ferroportin on T47D cells (human (endogenous in T47D)) (UniProt Q9NP59).
Experiment [6] has as its target human ferroportin with V5 tag, on doxycycline-induced T-REx/FPN-V5 cells (human) (UniProt Q9NP59). This is another data set of the same source.
The test system of a further experiment is FPN (T-REx/FPN-V5 cells). In words: RhoG-hepcidin binding and displacement at 0°C on FPN-expressing cells. It counts as cell-based, human. The note with it: 2 h on ice, then 10X unlabeled hepcidin for 2 h on ice. As for the experimental part: To verify this work, RhoG-hepcidin was incubated with either uninduced or induced cells at 0°C. Contrary to the previous report, RhoG-hepcidin bound to FPN at this low temperature. To assess the reversibility of hepcidin binding to FPN, we incubated FPN-expressing cells with RhoG-hepcidin at 0°C to prevent internalization; we then added excess unlabeled hepcidin to determine if the labeled hepcidin could be displaced. […] We confirmed that FPN was not internalized using antibody 45D8 (Figure 11A).
(A) T-REx™/FPN-V5 cells were allowed to equilibrate on ice for 15 min prior to addition of RhoG-hepcidin for 2 h on ice; 10X unlabeled hepcidin was added for 2 additional hours on ice. FPN was detected with Ab 45D8; scale bar = 20 μm. (B) Non-glycosylated FPN binds hepcidin and internalizes. T-REx™/FPN-V5 cells were treated ± 0.3 μg/ml tunicamycin (Tm) for 18 h, followed by treatment with 500 nM hepcidin (Hepc) for 5 h. Blot was probed with anti-V5 Ab for FPN detection and anti-cyclophilin as loading control. (C) Induced HEK-FPN-V5 cells were treated ± 0.25 μg/ml tunicamycin (Tm) for 18 h, followed by RhoG-hepcidin for 3 h; uptake was quantitated by cellular imaging (N = 4, mean ± sd).

The target of experiment [7] is ferroportin (T-REx/FPN-V5 cells) (Homo sapiens, UniProt Q9NP59). In words: cell-based.
Procedure: Cells were plated in 96-well Poly-D-Lysine coated plates (BD) at 50,000 cells/well and induced overnight with 10 ng/ml doxycycline (Clontech). […] FPN staining was completed as described above except that the incubations were performed at room temperature. […] Nuclei were stained with Hoechst dye. Cell surface or total FPN or intracellular hepcidin was quantitated with cellular imaging. Uninduced (non-FPN-expressing) cells served as a negative control. Images were captured from Arrayscan™ VTI (Thermo Fisher) equipped with Zeiss microscope optics and Hamamatsu ORCA®-ER CCD camera. Images were captured with 10X or 20X objectives and analyzed with the Spot Detector bioapplication. A minimum of 300 cells per well were analyzed for each condition.
T-REx™/FPN-V5 were plated in 384-well Poly-D-Lysine coated plates (BD) at 15,000 cell/well and induced overnight as described for RhoG-hepcidin uptake assay. […] Plates were scanned on Thermo Fisher ArrayScan™ HCS Reader and analyzed with Spot Detector application. A minimum of 300 cells/well were analyzed.
Alanine mutant peptides were tested for activity in both BLA and ferroportin internalization assays.
Using these antibodies, it was possible to develop a quantitative cellular imaging assay that measured hepcidin-induced FPN internalization. […]

Where a SMILES comes first, the peptide text is derived from it. Bridges are numbered along the chain shown (N, C = ends). Side-chain parts run from the residue outwards. The star is where a group is joined. X1 = Nc1ccc2c(c1)Oc1cc(N)ccc1C21OC(=O)c2cc(C(=O)*)ccc21; Ahx = NCCCCCC(=O)O

For the molecule hepcidin K18A (peptide), in experiment [1], the FPN internalization assay EC50 (surface FPN by cellular imaging, T-REx/FPN-V5 cells) turned out to be 0.012 µM and the Iron response assay EC50 (β-lactamase reporter under the ferritin IRE, T-REx/FPN-V5/IRE-BLA cells) amounted to 0.013 µM.

Take hepcidin T25A (peptide): in experiment [1], the FPN internalization assay EC50 (surface FPN by cellular imaging, T-REx/FPN-V5 cells) turned out to be 0.039 µM and the Iron response assay EC50 (β-lactamase reporter under the ferritin IRE, T-REx/FPN-V5/IRE-BLA cells) was 0.053 µM.

For `NC(=O)CI` [iodoacetamide, reference compound], in experiment [2] (100 μM compound, 1 h, in cells), the “inhibition of hepcidin uptake” value was ~ 50%. In addition, the IC50 in experiment [2] was found to be 86 µM.

hepcidin G20A (peptide): in experiment [1], the FPN internalization assay EC50 (surface FPN by cellular imaging, T-REx/FPN-V5 cells) amounted to 0.309 µM and the Iron response assay EC50 (β-lactamase reporter under the ferritin IRE, T-REx/FPN-V5/IRE-BLA cells) came to 0.288 µM.

Consider hepcidin I6A (peptide), for which, in experiment [1], the FPN internalization assay EC50 (surface FPN by cellular imaging, T-REx/FPN-V5 cells) is 0.247 µM and the Iron response assay EC50 (β-lactamase reporter under the ferritin IRE, T-REx/FPN-V5/IRE-BLA cells) turned out to be 0.634 µM.

For the molecule hepcidin D1A (peptide), in experiment [1], the FPN internalization assay EC50 (surface FPN by cellular imaging, T-REx/FPN-V5 cells) was 0.185 µM and the Iron response assay EC50 (β-lactamase reporter under the ferritin IRE, T-REx/FPN-V5/IRE-BLA cells) was determined as 0.144 µM.

With “[Lys17(N-epsilon-Rhodamine green amino hexanoyl)]hepcidin (peptide)”, in experiment [3], the EC50 of FPN internalization, T-REx/FPN-V5 cells, 3 h, cellular imaging with Ab 38C8 came out at 0.03 µM.

Take `O=S(=O)(c1ccc(Cl)cc1)c1cnc2ccccc2n1` [Compound 1, 2-[(4-chlorophenyl)sulfonyl]quinoxaline]: the IC50 in experiment [4] stood at 0.141 µM; in experiment [2], 0.1 µM. For the same molecule, in experiment [2] (100 μM compound, 1 h, in cells, read-out: inhibition of hepcidin uptake), the inhibition at 100 µM came to 100%.

For the molecule hepcidin I8A (peptide), in experiment [1], the FPN internalization assay EC50 (surface FPN by cellular imaging, T-REx/FPN-V5 cells) was greater than 3.6 µM and the Iron response assay EC50 (β-lactamase reporter under the ferritin IRE, T-REx/FPN-V5/IRE-BLA cells) is greater than 3.6 µM.

In experiment [1], hepcidin S17A (peptide) returned an FPN internalization assay EC50 (surface FPN by cellular imaging, T-REx/FPN-V5 cells) of 0.05 µM and an Iron response assay EC50 (β-lactamase reporter under the ferritin IRE, T-REx/FPN-V5/IRE-BLA cells) of 0.066 µM.

Regarding hepcidin K24A (peptide), in experiment [1], the FPN internalization assay EC50 (surface FPN by cellular imaging, T-REx/FPN-V5 cells) was determined as 0.267 µM and the Iron response assay EC50 (β-lactamase reporter under the ferritin IRE, T-REx/FPN-V5/IRE-BLA cells) was determined as 0.266 µM.

For the molecule hepcidin P5A (peptide), in experiment [1], the FPN internalization assay EC50 (surface FPN by cellular imaging, T-REx/FPN-V5 cells) amounted to 0.474 µM and the Iron response assay EC50 (β-lactamase reporter under the ferritin IRE, T-REx/FPN-V5/IRE-BLA cells) amounted to 0.18 µM.

As to hepcidin M21A (peptide), in experiment [1], the FPN internalization assay EC50 (surface FPN by cellular imaging, T-REx/FPN-V5 cells) was determined as 0.162 µM and the Iron response assay EC50 (β-lactamase reporter under the ferritin IRE, T-REx/FPN-V5/IRE-BLA cells) worked out at 0.112 µM.

For hepcidin H15A (peptide), in experiment [1], the FPN internalization assay EC50 (surface FPN by cellular imaging, T-REx/FPN-V5 cells) worked out at 0.01 µM and the Iron response assay EC50 (β-lactamase reporter under the ferritin IRE, T-REx/FPN-V5/IRE-BLA cells) came out at 0.012 µM.

With hepcidin H3A (peptide), in experiment [1], the FPN internalization assay EC50 (surface FPN by cellular imaging, T-REx/FPN-V5 cells) amounted to 0.308 µM and the Iron response assay EC50 (β-lactamase reporter under the ferritin IRE, T-REx/FPN-V5/IRE-BLA cells) came to 0.298 µM.

Regarding hepcidin R16A (peptide), in experiment [1], the FPN internalization assay EC50 (surface FPN by cellular imaging, T-REx/FPN-V5 cells) amounted to 0.056 µM and the Iron response assay EC50 (β-lactamase reporter under the ferritin IRE, T-REx/FPN-V5/IRE-BLA cells) was determined as 0.057 µM.

In experiment [1], hepcidin F4A (peptide) returned an FPN internalization assay EC50 (surface FPN by cellular imaging, T-REx/FPN-V5 cells) greater than 3.6 µM and an Iron response assay EC50 (β-lactamase reporter under the ferritin IRE, T-REx/FPN-V5/IRE-BLA cells) greater than 3.6 µM.

For the molecule “synthetic human hepcidin (wild type, unlabeled) (peptide)”, in experiment [1], the FPN internalization assay EC50 (surface FPN by cellular imaging, T-REx/FPN-V5 cells) was 0.051 µM and the Iron response assay EC50 (β-lactamase reporter under the ferritin IRE, T-REx/FPN-V5/IRE-BLA cells) worked out at 0.063 µM. In addition, the EC50 of hepcidin-induced FPN internalization, T47D cells, 6 h, surface FPN on live cells by cellular imaging with Ab 38C8 in experiment [5] was found to be 0.013 µM. Besides, the EC50 of hepcidin-induced FPN internalization, T-REx/FPN-V5 cells, 6 h, surface FPN on live cells by cellular imaging with Ab 38C8 in experiment [6] worked out at 0.011 µM.

In experiment [1], hepcidin T2A (peptide) came in with an FPN internalization assay EC50 (surface FPN by cellular imaging, T-REx/FPN-V5 cells) of 0.029 µM and an Iron response assay EC50 (β-lactamase reporter under the ferritin IRE, T-REx/FPN-V5/IRE-BLA cells) of 0.029 µM.

In experiment [1], hepcidin G12A (peptide) had an FPN internalization assay EC50 (surface FPN by cellular imaging, T-REx/FPN-V5 cells) of 0.212 µM and an Iron response assay EC50 (β-lactamase reporter under the ferritin IRE, T-REx/FPN-V5/IRE-BLA cells) of 0.107 µM.

For hepcidin F9A (peptide), in experiment [1], the FPN internalization assay EC50 (surface FPN by cellular imaging, T-REx/FPN-V5 cells) is 0.25 µM and the Iron response assay EC50 (β-lactamase reporter under the ferritin IRE, T-REx/FPN-V5/IRE-BLA cells) amounted to 0.392 µM.

In the case of `CC[C@H](C)[C@@H]1NC(=O)[C@@H](NC(=O)[C@@H](NC(=O)[C@@H]2CCCN2C(=O)[C@H](Cc2ccccc2)NC(=O)[C@H](Cc2c[nH]cn2)NC(=O)[C@@H](NC(=O)[C@@H](N)CC(=O)O)[C@@H](C)O)[C@@H](C)CC)CSSC[C@@H](C(=O)N[C@@H](CCCCN)C(=O)N[C@H](C(=O)O)[C@@H](C)O)NC(=O)[C@@H]2CSSC[C@@H]3NC(=O)[C@@H]4CSSC[C@H](NC(=O)[C@H](Cc5ccccc5)NC1=O)C(=O)N[C@@H](CSSC[C@H](NC(=O)[C@H](CCCCN)NC(=O)[C@H](CCCCNC(=O)CCCCCNC(=O)c1ccc5c(c1)C(=O)OC51c5ccc(N)cc5Oc5cc(N)ccc51)NC(=O)[C@H](CCCNC(=N)N)NC(=O)[C@H](Cc1c[nH]cn1)NC3=O)C(=O)NCC(=O)N[C@@H](CCSC)C(=O)N2)C(=O)NCC(=O)N4` [RhoG-hepcidin, [Lys17(N^ε-Rhodamine green amino hexanoyl)]hepcidin] (H-DTHFPICIFCCGCCHRK([Ahx-X1])KCGMCCKT-OH; disulfide 7-23, 10-13, 11-19, 14-22 (inferred); C-terminus assumed), in the experiment on FPN (T-REx/FPN-V5 cells), the “reversibility of binding to FPN” value is given as “reversible”. In experiment [7], this molecule showed a concentration giving a half-maximal response (EC50) of roughly 0.03 µM.

Usually inhibition stands for the share of the control response that was lost under treatment. As usually defined, the EC50 is the concentration giving half of the maximal effect. Higher therefore signals lower potency in that assay.

Source of the values: publication PMC5702341, “Identification of Antibody and Small Molecule Antagonists of Ferroportin-Hepcidin Interaction” (Frontiers in Pharmacology, 2017).
